Target: T1, LgB-NIX (UniProt O60238 1-219)
T1 construct: also called NIX (NanoBiT Large BiT fusion); not shown: Large BiT (LgB), N-terminal, kept
Assay: split reporter (BiFC, NanoBiT)
Settings: partners not purified

T1 sequence (O60238 whole entry, the tested form may be a part): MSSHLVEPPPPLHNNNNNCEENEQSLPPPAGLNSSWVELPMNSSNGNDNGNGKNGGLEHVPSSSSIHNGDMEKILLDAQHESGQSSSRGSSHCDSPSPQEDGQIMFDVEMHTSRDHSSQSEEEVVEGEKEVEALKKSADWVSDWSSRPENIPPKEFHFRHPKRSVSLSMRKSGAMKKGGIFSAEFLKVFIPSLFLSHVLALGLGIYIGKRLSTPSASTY

B1: vIRF-1-SmB (natural protein)
chain: MDPGQRPNPFGAPGAIPKKPCLSQGSPGTSGSGAPCDEPSRSESPGEGPSGTGGSAAAGDITRQAVVAAITEWSRTRQLRISTGASEGKASIKDWIVCQVNSGKFPGVEWEDEERTRFRIPVTPLADPCFEWRRDGELGVVYIRERGNMPVDASFKGTRGRRRMLAALRRTRGLQEIGKGISQDGHHFLVFRVRKPEEEQCVECGVVAGAVHDFNNMARLLQEGFFSPGQCLPGEIVTPVPSCTTAEGQEAVIDWGRLFIRMYYNGEQVHELLTTSQSGCRISSALRRDPAVHYCAVGSPGQVWLPNVPNLACEIAKRELCDTLDACAKGILLTSSCNGIFCVCYHNGPVHFIGNTVPPDSGPLLLPQGKPTRIFNPNTFLVGLANSPLPAPSHVTCPLVKLWLGKPVAVGKLEPHAPSPRDFAARCSNFSDACVVLEIMPKPLWDAMQ
notes: also called vIRF-1-SmB (NanoBiT Small BiT fusion); source: 293T, transiently transfected, in cells; not shown: Small BiT (SmB), C-terminal, kept
- fold luminescence against HT-SmB with LgB-NIX: 10 fold
